Source: the nanobody polyreactivity screen of Harvey et al. (2022)

test: yeast display, Sf9 membrane polyspecificity reagent, FACS + sequencing; frameworks hold sequencing errors
In short: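 After 36–48 hours of galactose induction, yeast (Saccharomyces cerevisiae BJ5465) displaying a synthetic nanobody library were stained at 4 °C for 1 hour with 10% biotinylated, detergent-solubilized Sf9 membrane reagent. Streptavidin microbeads enriched the stained cells before FACS sorting into low and high (top ~1%) gates on anti-HA and streptavidin fluorescence. Each clone's polyreactivity label reflects its gate of origin.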

Row | Sequence | polyreactivity (PSR sort gate)
1 | QVQLVESGVCLVQAGGSLRLSCASSGLIIPPNAMGWYRQPPGKERELVASITRSGGSTYYADSVKGRFTISRDNAKNTVYVQMNSLTPEDTAVYYCAAYLDTSRYGVLYDYWGQGTQVTVSS | low polyreactivity
2 | QVQLVESGVGIVQARGSLRLSCAASGYTFYRYTMGWYRQSRGNERELVAAINSGGSTNYADSVKGRFTISRDNAKNTVYLQMNSLKPEDTAVYYCAAGDGPWLPRVHYGGYGYWGQGTQVTVSS | high polyreactivity
3 | QVQLVESGVGKVQAGGSLRLSCAASGSTIGSNAMGWYRQAPGKESELVATINWRGGSTYADSVKGRFTLSRDNAKNTVYLQINSLKPEDTAVYYCKKVRGAFYSHLFDYWGQGTEVTVSS | high polyreactivity
4 | QVQLVESGVGLFQAGGSLRLSCAASGITFYSYAMGWYRQAPGKESQLVATISRSGSTYYADSVKGRFTISRDNAKNSVYLQMNSLKPEDTAVYYCAAYYAVRGATYRYGYWGQGTQVTVSS | high polyreactivity
5 | QVQLVESGVGLVHAGGSLRLSCAASGFTFKENAMGWYRQAPGKERELVAAISSTGGSTYYADSVKGRFTISRDIAKNTVYLQINRLKPEDTAVYYCAASTYWYDGDYWGQGTQVTVSS | high polyreactivity
6 | QVQLVESGVGLVKAGGILRLSCAASGFTFASNVMGWSRQAPGKERELVAAITSGASTNYADSVKGRFTISRDNAKNTVYLQMNSLKPEDTAVYYCAAGRQWYVFYEFDYWGQGTQVTVSS | high polyreactivity
7 | QVQLVESGVGLVQAAGSLRLSCAASGFIFWVNAMGWYRQAPGKEREFVAAIRSSGGNTYYADSVKGRFTISRDNAKNTVYLQMNSLKPEDTAVYYCAADSVIVTYESDYWGQGTQVTVSS | low polyreactivity
8 | QVQLVESGVGLVQAGCSLRLSCAASGFTNAMGWYRQAPGKERELVAAISYSGDSTNYADSLKGRFTISRDNAKNTVYLQMNSMKPVDTAVYYCNASSPYDYDWGQGTQVTVSS | low polyreactivity
9 | QVQLVESGVGLVQAGCSLRLSCAASGSTFVLNAMGWYLQAAGKERELVAAISRGGASTYSADSVKGRFTISRDYAKNTVYLQMNSLKPEDTAVYYCNASGYGPGVVIYLVVYDYWGQGTQVTVSS | low polyreactivity
10 | QVQLVESGVGLVQAGGILRLSCAASGFIFALNAMGWYRQAPGKERELVATIDSTSGSTYYADSVKGRFTISRDNAKNTVYLEMNSLKPEDTAVYYCAVVHAQSAPMDYWGQGTQVTVSS | low polyreactivity
11 | QVQLVESGVGLVQAGGILSLSCAASGLTFGAYTMGWYRQAPGKERELVAAITSSGGRTYYADSVKGRFTISRDNAKITFYLQMNSLKPEDTAVFYCNARIFRSPNPYDYWGQGTQVSVSS | high polyreactivity
12 | QVQLVESGVGLVQAGGRLLLSCAASRSIFTRYTMGWYSQAPGKEWELVATISSRGDGTFYADSVKGRFTISRDNAKNTFYLQMNSLKPEDTAVYYCAARYRRVHSGYGYWGQVTQVTVSS | high polyreactivity
13 | QVQLVESGVGLVQAGGRLRLSCAASGRTFYYYAMGWYRQAAAKERELVAAITTDGGNTFYADSVKGRFTISRDNAKNSVYIQMNSLKPEDSAVYYWAKSDTEGYYWDVPVTFDYGGQGTQVTVSS | low polyreactivity
14 | QVQLVESGVGLVQAGGSHRLSCAASGFTFLINAMGWYRQEPWKERELVAAIRSGGSTNYADSVKGRFTISRDNAKNTVYLQMNSLKPEETAVYYCAARRYYPDKYRYGYWGQGTQVTVSS | high polyreactivity
15 | QVQLVESGVGLVQAGGSLRLICAASGRTFYWYAMGWYRQAPRKERELVATITRGGRTYYADSVKGRFTISRDNAKNTVYLQMNSLKPEDTAVYDCATVSIAGPRYDYWGQGTQVTVSS | high polyreactivity
16 | QVQLVESGVGLVQAGGSLRLICAASGSIFWSNAMGWYTQAPGKERELVAAISSGGSTYADSVKGRFTISRDNAKNTVYLQMNSLKPEDTAVYYCNADVLYGDSYRGGYWGQGTQVTVSS | low polyreactivity
17 | QVQLVESGVGLVQAGGSLRLICAASGSIFYPYTMGWYRQAPGKERELVAAITINGGSTYYADSVKGRFTISRDNAKNTVYLQMNSLKPEDTAVYYCAAYYASPRHGYWGQGTQVTVSS | low polyreactivity
18 | QVQLVESGVGLVQAGGSLRLRCAASGSTFIVYALRWSRQAPGKERELVAAISWNGGRTYYADSVKGRFTISRDNAKKTVYLQMNSLKPEDTAVYYCPATLYNTEDDYWGQGTQVTLSS | low polyreactivity
19 | QVQLVESGVGLVQAGGSLRLSCAASGFIFCGYAMVWYRHAPGKERELVAAISWSGDNTYYADSVKGRFTISRDNAKNTVYFQMNSLKPEDTAVYYCAADSYGQEYDYWGQGTQVSVSS | low polyreactivity
20 | QVQLVESGVGLVQAGGSLRLSCAASGFIFDHNAMGWYRQAPGKERELVAAITRSGGSTYYADSVKGRFTISRDNAKNTVYLQMNSLKPEDTAVYYCAADLSYRGATRGDYYWGQGTQVTVSS | low polyreactivity
21 | QVQLVESGVGLVQAGGSLRLSCAASGFIFHRNAMGWYRQAPGKERELVASITKRGGNTYYADSVKGRFTISRDNAKNTVYLQMNSLKPEDTAVYYCATHLWGWDWKRDYWGQGTQVTVSS | high polyreactivity
22 | QVQLVESGVGLVQAGGSLRLSCAASGFIFPTYAMGWYRQAPGKEREFVASITRRGGSTYYADSVKGRFTISRDNAKNSVYLQMNSLKPEDTAVYYCAAGYYGFRGGGSDYWGQGTQVTVSS | high polyreactivity

Row | Sequence | polyreactivity (PSR sort gate)
23 | QVQLVESGVGLVQAGGSLRLSCAASGFIFRKYTMGWYRQAPGKERELVATIDSSGGSTYYADSVKGRFTISRDNAKNTVYLQMNSLKPEDTAVYYCNADLRELSPWYWYSGEMDYWGQGTQVTVSS | low polyreactivity
24 | QVQLVESGVGLVQAGGSLRLSCAASGFIFYRNAMGWYRPAPGKERELVAGISRVGSTYYADSVKGRFTISRDNAKNTVYLQMKSLKPEDTAVYYCATSTYAYRRNSYYYTRPRFGYWGQGTQVSVSS | high polyreactivity
25 | QVQLVESGVGLVQAGGSLRLSCAASGFILTAYDMGWYRQAPGKERELVAAIDWIGGSTYYADSVKGRFTISRDNAKNTVYLQMNSLKPEDTAVYYCAARFYSYVYRLDYWGQGTQVTVSS | low polyreactivity
26 | QVQLVESGVGLVQAGGSLRLSCAASGFTFSYNALGWYRQAPGKERELVAAISSSGGSTYYADSVKGRFTISRDNAKNTVYLQMNILKPEDTAVYYCAVPYLTLYGRTYDYWGHGTQVTVSS | high polyreactivity
27 | QVQLVESGVGLVQAGGSLRLSCAASGFTISYYTIGWSRQAPGKDRELVAAISSTGVSTYYADSVKGRFTISRDTAKNTVYLPLNSLKPEDTSVYYCAADYYGVYEYYYWGQGTQVTVSS | high polyreactivity
28 | QVQLVESGVGLVQAGGSLRLSCAASGGTFRPYAMGWYRHAPGKESELVAAISYTGSTYYADSVKGRFTISRDNAKNTVYLQMNSLKPVDTAVYYCAKDLWYPPRFDYWGQGTQVTVSS | low polyreactivity
29 | QVQLVESGVGLVQAGGSLRLSCAASGIIFKVYAMGWYRQAPGKERELVAAISKSGGSTYYADSVKGRFTISRDNAKNTVYLQMNSLKPEDTAVYYCAARDYARYASYYYWGLGTQVTVSS | high polyreactivity
30 | QVQLVESGVGLVQAGGSLRLSCAASGIIFYDNALGWYRQAPGKERELVAAITDSGGTTYYADSVKGRFTISRDNAKNTVYLEMNSLKPEDNAVYYCAAETTATHGFAYDYWGQGTQVTVSS | low polyreactivity
31 | QVQLVESGVGLVQAGGSLRLSCAASGIIFYEYAMGWNRQAPWKERELVATITSGGSTNYADSVKGRFTISRDNAKNTVYLQMNSLKPEDTAVYYCNADWWWGYGYWGQGTQVTVSS | low polyreactivity
32 | QVQLVESGVGLVQAGGSLRLSCAASGITFSYYAMGWYRQAPGKERELVAAISGSGTSTYYADSVKGRFTISRDNAKNTVYLQMNSLKPEDTAVYYCAAGPPRKPGYYYWGQGTQVTVSS | high polyreactivity
33 | QVQLVESGVGLVQAGGSLRLSCAASGITFTGYAMGWYRQAPGKERELVAVISETGGSTYADSVKGRFTISRDNAKNTVYLQMNSLKPEDTAVYYCATRLWWPYSTAWAKMDYWGQGTQVTVSS | low polyreactivity
34 | QVQLVESGVGLVQAGGSLRLSCAASGNIFWWNAMGWYRQAPGKERELVAAITSDSTTYYADSVKGRFTISRDNAKKTVYFQMNSLKPEDTAVYYCAAYSYGGQGVDYGYWGQGTQVNVSS | low polyreactivity
35 | QVQLVESGVGLVQAGGSLRLSCAASGNIITTYAMGWYRQAPGKERELVAAISRTGGRTSYADSVKGRFTISRDNAKNTVYLQMNSLKPEDTAVYYCAAVQTVRQSAPRARILSDYWGQGTQVTVSS | high polyreactivity
36 | QVQLVESGVGLVQAGGSLRLSCAASGNILGYNAIGWYRQAPGKETELVAAISWIGGSTYYADSVKGRFTISRDNAKNTVYLQMNSLKPEDTAVYYCAARYRTYFTYEYWGQGTQVTVSS | low polyreactivity
37 | QVQLVESGVGLVQAGGSLRLSCAASGRIFHINAMGWYRQAPGKERELVATISGTDRTTYADSVKGRFTISRDNAKNTVYLQMNSLKPEDTAVYYCAAPTDFLFWEFDYWGQGTQVTVSS | low polyreactivity
38 | QVQLVESGVGLVQAGGSLRLSCAASGRIFIKYAMGWYRQAPGKEREFVAAISGRGGSTYYADSVKGRFTISRDNAKNTVYLQMNSLKPEDTAVYYCAKRFFSSGTAAGMYYWGQGTQVTVSS | high polyreactivity
39 | QVQLVESGVGLVQAGGSLRLSCAASGRIFRTYAMGWYRQAPGKERELVAAITSGGGSTYYADSVKGRFTISRDNAKNTVYLQMNSLKPEDTAVYYCAARPGIRSYPPGYGYWGQGTQVTVSS | high polyreactivity
40 | QVQLVESGVGLVQAGGSLRLSCAASGRIFRWYPMGWYRQAPGKERELVASITWNGGSTYYADSVKGRFTISRDNAKNTVYLQMKSLKPEDTAVYYCAVPFYRGPEMGYWGQGTQVTVSS | high polyreactivity
41 | QVQLVESGVGLVQAGGSLRLSCAASGRIFTPYAMGWYRQAPGKERELVAAITGSGGITYYADSVKGRFTISRDNSKNTVYLQMNSLKPEDTAVYYCNADTPVWDGHAYPGDYWGQGTQVTVSS | low polyreactivity
42 | QVQLVESGVGLVQAGGSLRLSCAASGRNFGTNAIGWYRPAPGKERELVAAISSSGGSTYYADSVKGRFTISRDNAKNTVYLQMNSLKPEDTAVYYCAKGWHRGVGFGYWGQGTEVTVSS | high polyreactivity
43 | QVQLVESGVGLVQAGGSLRLSCAASGRTIPIYAMGWYRQAPGKERELVASITRSGGSTYYADSVKGRFTISRDNAKYTVYLQMNSLKPEDTAVYYCAAAANSYSVYSGKFYYWGQGTQVTVSS | high polyreactivity
